B1: TRIM29 (parent)
chain: FAEKGELRKSIFSESRKPTVSIME
B2: DLC1 (parent)
chain: NDDSADYQHFLQDCVDGLFKEVKE

Variants of: B1
Assay: protein stability index of a GFP-peptide fusion (GPS, HEK-293T) (PSI 1-6); higher = more stable
Conditions: c terminus: a fixed tail appended
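Further: lentivirally expressed fusions sorted by FACS into six bins by GFP to DsRed ratio, PSI derived from sequencing read proportions per bin multiplied by bin number.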

Variant	protein stability index
FAEKGELRKSIFSESRKSTVSIME [P18S]	1.46
FACKGELRKSIFSESRKPTVSIME [E3C]	1.92
FAFKGELRKSIFSESRKPTVSIME [E3F]	1.42
FAEKGELRKSIWSESRKPTVSIME [F12W]	1.14
FCEKGELRKSIFSESRKPTVSIME [A2C]	1.66
FAEKGELRKSIFSESRKPSVSIME [T19S]	2.74
FAEKGEQRKSIFSESRKPTVSIME [L7Q]	2.31
FAEKGELRKSIFSESRKPAVSIME [T19A]	3
FAEKGELVKSIFSESRKPTVSIME [R8V]	2.74
FAEKGELRKSIFSESRWPTVSIME [K17W]	2.22
FAEKGELRKSIFSESRKPTVSDME [I22D]	1.99
FAEKGELRKSIFSESRKPTVSRME [I22R]	1.34
FAEKGELRKSIFSESRKPTFSIME [V20F]	1.97
FAEKGELRKSIFSLSRKPTVSIME [E14L]	1.91
FAEKGELRKSIFSESRKPTRSIME [V20R]	1.68
FASKGELRKSIFSESRKPTVSIME [E3S]	3.11
FAEKGELRKSIFSESRKPIVSIME [T19I]	1.17
FAEKGELRKSIFAESRKPTVSIME [S13A]	2.1
FAEKGELRKSIFSMSRKPTVSIME [E14M]	1.59
FNEKGELRKSIFSESRKPTVSIME [A2N]	2.91
FAEKGELRKSITSESRKPTVSIME [F12T]	3.54
FAEKGELRKSIFSELRKPTVSIME [S15L]	1.96
DAEKGELRKSIFSESRKPTVSIME [F1D]	4.75

Variant	protein stability index
FAEKGELRHSIFSESRKPTVSIME [K9H]	2.16
FAEKHELRKSIFSESRKPTVSIME [G5H]	2.3
FAEKGELRKSIFSESRKPTVSHME [I22H]	3.02
FAEKGELRKSIFSESRKPDVSIME [T19D]	2.15
FAEKGELRKSIFSESRKPTSSIME [V20S]	2.34
FAEKGELRKSIFSESRKPTPSIME [V20P]	1.89
FAEKPELRKSIFSESRKPTVSIME [G5P]	2.46
FAEKGELRKSIFSESRKPTVSGME [I22G]	1.85
FAEKGELRKSIFSESRIPTVSIME [K17I]	2
FAEKGELRKSIFSESRKPTVSISE [M23S]	1.58
FAEKGELRKSIFSKSRKPTVSIME [E14K]	1.99
FAEKGPLRKSIFSESRKPTVSIME [E6P]	2.78
FAEKGELRKSIYSESRKPTVSIME [F12Y]	2.04
FAEKGELRKSIFSESRKPKVSIME [T19K]	2.58
FAEKGELRKSIFSESRKPTVSFME [I22F]	1.79
FAEKDELRKSIFSESRKPTVSIME [G5D]	1.8
FAEKGELRKSIFSESRKPTVSIMN [E24N]	1.36
FAEKGELRKSIFDESRKPTVSIME [S13D]	2.42
FAEKGELRKSIFSESRAPTVSIME [K17A]	2.43
FAEKGERRKSIFSESRKPTVSIME [L7R]	1.82
FAEKGELRKSIFSESRKPTVSIRE [M23R]	2.22
FDEKGELRKSIFSESRKPTVSIME [A2D]	3.76

Variants of: B2
Assay: as above
Conditions: c terminus: a fixed tail appended

Variant	protein stability index
CDDSADYQHFLQDCVDGLFKEVKE [N1C]	2.24
DDDSADYQHFLQDCVDGLFKEVKE [N1D]	1.72

Reference: the supplement of paper PMC10567573
